According to article PMC12132507 (bioRxiv, 2025):

T1: Eps15IDR (C-terminal intrinsically disordered region of human Eps15, residues 481 to 897) (human, UniProt P42566 481-896)
T1 sequence: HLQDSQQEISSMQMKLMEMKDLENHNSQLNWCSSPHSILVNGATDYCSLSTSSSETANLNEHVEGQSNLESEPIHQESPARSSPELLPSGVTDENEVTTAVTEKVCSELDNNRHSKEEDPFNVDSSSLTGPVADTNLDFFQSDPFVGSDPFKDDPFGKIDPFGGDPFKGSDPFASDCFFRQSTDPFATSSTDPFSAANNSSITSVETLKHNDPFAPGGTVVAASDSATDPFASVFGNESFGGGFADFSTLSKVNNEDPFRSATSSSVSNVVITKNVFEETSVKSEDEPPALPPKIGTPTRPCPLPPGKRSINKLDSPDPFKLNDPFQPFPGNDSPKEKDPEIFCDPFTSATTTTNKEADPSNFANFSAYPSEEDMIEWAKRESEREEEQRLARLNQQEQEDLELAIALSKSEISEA

B1: N-terminal domain of the clathrin heavy chain, TD40 (domain or fragment)
chain: MAQILPIRFQEHLQLQNLGINPANIGFSTLTMESDKFICIREKVGEQAQVVIIDMNDPSNPIRRPISADSAIMNPASKVIALKAGKTLQIFNIEMKSKMKAHTMTDDVTFWKWISLNTVALVTDNAVYHWSMEGESQPVKMFDRHSSLAGCQIINYRTDAKQKWLLLTGISAQQNRVVGAMQLYSVDRKVSQPIEGHAASFAQFKMEGNAEESTLFCFAVRGQAGGKLHIIEVGTPPTGNQPFPKKAVDVFFPPEAQNDFPVAMQISEKHDVVFLITKYGYIHLYDLETGTCIYMNRISGETIFVTAPHEATAGIIGVNRKGQVLSVCVEEENIIPYITNVLQNPDLALRMAVRNNLAGAEEL

What was measured:
[1] = target: B1; assay: NMR titration
[2] = target: T1, Eps15IDR (C-terminal intrinsically …); assay: NMR titration

Binder	binding result [1]	binding result [2]
Eps15(569-671) (domain or fragment) SGVTDENEVTTAVTEKVCSELDNNRHSKEEDPFNVDSSSLTGPVADTNLDFFQSDPFVGSDPFKDDPFGKIDPFGGDPFKGSDPFASDCFFRQSTDPFATSST	binds	
B1		binds
Eps15(648-780) (domain or fragment) KGSDPFASDCFFRQSTDPFATSSTDPFSAANNSSITSVETLKHNDPFAPGGTVVAASDSATDPFASVFGNESFGGGFADFSTLSKVNNEDPFRSATSSSVSNVVITKNVFEETSVKSEDEPPALPPKIGTPTR	binds	
